“Also recorded” adds a separate entry of the source.
Key:
Format in all cases: in vivo, mice
MDA-MB-361 = assay: Biodistribution, MDA-MB-361 tumor; details: 60 min
Description: (§1) Mice were sacrificed at different time points by exsanguination.

[1] = Metabolic stability, plasma radio-HPLC; details: 3.7 MBq i.v., 10, 30 and 60 minutes post injection
Method: At 10, 30 and 60 minute post injection, mice were exsanguinated via cardiac puncture and blood removed for centrifugation. Plasma was obtained and kept on ice for analysis of radioactive metabolites by HPLC.

Biodistribution, tissues = assay: Biodistribution, tissues
Description: as §1

For “[^18F]GE-226: HER2-binding 18F-radiolabelled Affibody molecule ZHER2:2891”, the “Tissue uptake, MDA-MB-361” value (MDA-MB-361) was 17.00 ± 2.98 % ID/g tissue, the “metabolic stability” value [1] was “metabolically stable” and the “metabolic stability” value ([1]; listed as tracer) was “stable in vivo”. The “Tissue uptake, Blood” value (Biodistribution, tissues; 5 min) was 0.82 ± 0.83 % ID/g tissue, the “Tissue uptake, Bone” value (Biodistribution, tissues; 5 min) was 1.20 ± 1.08 % ID/g tissue and the “Tissue uptake, Brain” value (Biodistribution, tissues; 5 min) was 0.33 ± 0.35 % ID/g tissue. The “Tissue uptake, Caecum empty” value (Biodistribution, tissues; 5 min) was 3.24 ± 3.76 % ID/g tissue, the “Tissue uptake, Caecum full” value (Biodistribution, tissues; 5 min) was 0.97 ± 1.09 % ID/g tissue and the “Tissue uptake, Colon empty” value (Biodistribution, tissues; 5 min) was 2.68 ± 2.44 % ID/g tissue. The “Tissue uptake, Colon full” value (Biodistribution, tissues; 5 min) was 2.40 ± 2.53 % ID/g tissue, the “Tissue uptake, Duodenum empty” value (Biodistribution, tissues; 5 min) was 3.21 ± 3.50 % ID/g tissue and the “Tissue uptake, Duodenum full” value (Biodistribution, tissues; 5 min) was 2.55 ± 2.17 % ID/g tissue. The “Tissue uptake, Gallbladder” value (Biodistribution, tissues; 5 min) was 3.22 ± 3.29 % ID/g tissue, the “Tissue uptake, Heart” value (Biodistribution, tissues; 5 min) was 3.10 ± 2.83 % ID/g tissue and the “Tissue uptake, Jejunum empty” value (Biodistribution, tissues; 5 min) was 2.48 ± 2.81 % ID/g tissue. For the same substance, the “Tissue uptake, Jejunum full” value (Biodistribution, tissues; 5 min) was 1.68 ± 1.38 % ID/g tissue, the “Tissue uptake, Kidney” value (Biodistribution, tissues; 5 min) was 15.02 ± 6.99 % ID/g tissue and the “Tissue uptake, Liver” value (Biodistribution, tissues; 5 min) was 2.90 ± 2.96 % ID/g tissue. The “Tissue uptake, Lung” value (Biodistribution, tissues; 5 min) was 3.90 ± 3.84 % ID/g tissue, the “Tissue uptake, Muscle” value (Biodistribution, tissues; 5 min) was 0.88 ± 0.81 % ID/g tissue and the “Tissue uptake, Plasma” value (Biodistribution, tissues; 5 min) was 12.71 ± 14.90 % ID/g tissue. For the same substance, the “Tissue uptake, Spleen” value (Biodistribution, tissues; 5 min) was 3.18 ± 2.66 % ID/g tissue, the “Tissue uptake, Stomach empty” value (Biodistribution, tissues; 5 min) was 2.02 ± 1.62 % ID/g tissue and the “Tissue uptake, Stomach full” value (Biodistribution, tissues; 5 min) was 1.47 ± 1.85 % ID/g tissue. For the same substance, the “Tissue uptake, Urine” value (Biodistribution, tissues; 5 min) was 148.33 ± 127.65 % ID/g tissue, the “Tissue uptake, Blood” value (Biodistribution, tissues; 15 min) was 2.00 ± 0.75 % ID/g tissue and the “Tissue uptake, Bone” value (Biodistribution, tissues; 15 min) was 3.05 ± 0.88 % ID/g tissue. The “Tissue uptake, Brain” value (Biodistribution, tissues; 15 min) was 0.34 ± 0.11 % ID/g tissue, the “Tissue uptake, Caecum empty” value (Biodistribution, tissues; 15 min) was 4.94 ± 2.84 % ID/g tissue and the “Tissue uptake, Caecum full” value (Biodistribution, tissues; 15 min) was 1.68 ± 0.85 % ID/g tissue. The “Tissue uptake, Colon empty” value (Biodistribution, tissues; 15 min) was 5.78 ± 2.99 % ID/g tissue, the “Tissue uptake, Colon full” value (Biodistribution, tissues; 15 min) was 3.43 ± 1.89 % ID/g tissue and the “Tissue uptake, Duodenum empty” value (Biodistribution, tissues; 15 min) was 5.16 ± 2.36 % ID/g tissue. For the same substance, the “Tissue uptake, Duodenum full” value (Biodistribution, tissues; 15 min) was 4.07 ± 1.48 % ID/g tissue, the “Tissue uptake, Gallbladder” value (Biodistribution, tissues; 15 min) was 5.10 ± 1.77 % ID/g tissue and the “Tissue uptake, Heart” value (Biodistribution, tissues; 15 min) was 3.52 ± 1.19 % ID/g tissue. The “Tissue uptake, Jejunum empty” value (Biodistribution, tissues; 15 min) was 4.92 ± 1.33 % ID/g tissue, the “Tissue uptake, Jejunum full” value (Biodistribution, tissues; 15 min) was 2.71 ± 1.01 % ID/g tissue and the “Tissue uptake, Kidney” value (Biodistribution, tissues; 15 min) was 65.82 ± 18.48 % ID/g tissue. For the same substance, the “Tissue uptake, Liver” value (Biodistribution, tissues; 15 min) was 4.58 ± 1.77 % ID/g tissue, the “Tissue uptake, Lung” value (Biodistribution, tissues; 15 min) was 5.99 ± 2.10 % ID/g tissue and the “Tissue uptake, Muscle” value (Biodistribution, tissues; 15 min) was 2.05 ± 0.86 % ID/g tissue. The “Tissue uptake, Plasma” value (Biodistribution, tissues; 15 min) was 9.41 ± 3.75 % ID/g tissue, the “Tissue uptake, Spleen” value (Biodistribution, tissues; 15 min) was 3.94 ± 3.24 % ID/g tissue and the “Tissue uptake, Stomach empty” value (Biodistribution, tissues; 15 min) was 3.75 ± 1.38 % ID/g tissue. For the same substance, the “Tissue uptake, Stomach full” value (Biodistribution, tissues; 15 min) was 2.68 ± 1.04 % ID/g tissue, the “Tissue uptake, Urine” value (Biodistribution, tissues; 15 min) was 283.73 ± 243.00 % ID/g tissue and the “Tissue uptake, Blood” value (Biodistribution, tissues; 30 min) was 0.53 ± 0.35 % ID/g tissue. For the same substance, the “Tissue uptake, Bone” value (Biodistribution, tissues; 30 min) was 1.59 ± 0.94 % ID/g tissue, the “Tissue uptake, Brain” value (Biodistribution, tissues; 30 min) was 0.13 ± 0.08 % ID/g tissue and the “Tissue uptake, Caecum empty” value (Biodistribution, tissues; 30 min) was 1.92 ± 0.89 % ID/g tissue. For the same substance, the “Tissue uptake, Caecum full” value (Biodistribution, tissues; 30 min) was 0.60 ± 0.27 % ID/g tissue, the “Tissue uptake, Colon empty” value (Biodistribution, tissues; 30 min) was 1.80 ± 0.94 % ID/g tissue and the “Tissue uptake, Colon full” value (Biodistribution, tissues; 30 min) was 1.00 ± 0.59 % ID/g tissue. For the same substance, the “Tissue uptake, Duodenum empty” value (Biodistribution, tissues; 30 min) was 2.91 ± 1.27 % ID/g tissue, the “Tissue uptake, Duodenum full” value (Biodistribution, tissues; 30 min) was 2.87 ± 1.18 % ID/g tissue and the “Tissue uptake, Gallbladder” value (Biodistribution, tissues; 30 min) was 2.74 ± 1.06 % ID/g tissue. For the same substance, the “Tissue uptake, Heart” value (Biodistribution, tissues; 30 min) was 1.27 ± 0.60 % ID/g tissue, the “Tissue uptake, Jejunum empty” value (Biodistribution, tissues; 30 min) was 1.87 ± 1.12 % ID/g tissue and the “Tissue uptake, Jejunum full” value (Biodistribution, tissues; 30 min) was 1.73 ± 1.25 % ID/g tissue. The “Tissue uptake, Kidney” value (Biodistribution, tissues; 30 min) was 23.54 ± 11.70 % ID/g tissue, the “Tissue uptake, Liver” value (Biodistribution, tissues; 30 min) was 2.27 ± 1.23 % ID/g tissue and the “Tissue uptake, Lung” value (Biodistribution, tissues; 30 min) was 3.15 ± 1.84 % ID/g tissue. For the same substance, the “Tissue uptake, Muscle” value (Biodistribution, tissues; 30 min) was 0.78 ± 0.48 % ID/g tissue, the “Tissue uptake, Plasma” value (Biodistribution, tissues; 30 min) was 4.10 ± 2.23 % ID/g tissue and the “Tissue uptake, Spleen” value (Biodistribution, tissues; 30 min) was 1.71 ± 0.90 % ID/g tissue. For the same substance, the “Tissue uptake, Stomach empty” value (Biodistribution, tissues; 30 min) was 1.56 ± 0.86 % ID/g tissue, the “Tissue uptake, Stomach full” value (Biodistribution, tissues; 30 min) was 1.28 ± 0.92 % ID/g tissue and the “Tissue uptake, Urine” value (Biodistribution, tissues; 30 min) was 438.65 ± 219.01 % ID/g tissue. For the same substance, the “Tissue uptake, Blood” value (Biodistribution, tissues; 60 min) was 0.32 ± 0.26 % ID/g tissue, the “Tissue uptake, Bone” value (Biodistribution, tissues; 60 min) was 0.68 ± 0.40 % ID/g tissue and the “Tissue uptake, Brain” value (Biodistribution, tissues; 60 min) was 0.10 ± 0.07 % ID/g tissue. For the same substance, the “Tissue uptake, Caecum empty” value (Biodistribution, tissues; 60 min) was 0.87 ± 0.53 % ID/g tissue, the “Tissue uptake, Caecum full” value (Biodistribution, tissues; 60 min) was 0.36 ± 0.22 % ID/g tissue and the “Tissue uptake, Colon empty” value (Biodistribution, tissues; 60 min) was 1.25 ± 0.94 % ID/g tissue. For the same substance, the “Tissue uptake, Colon full” value (Biodistribution, tissues; 60 min) was 0.84 ± 0.59 % ID/g tissue, the “Tissue uptake, Duodenum empty” value (Biodistribution, tissues; 60 min) was 2.29 ± 2.29 % ID/g tissue and the “Tissue uptake, Duodenum full” value (Biodistribution, tissues; 60 min) was 1.53 ± 0.59 % ID/g tissue. The “Tissue uptake, Gallbladder” value (Biodistribution, tissues; 60 min) was 3.92 ± 3.29 % ID/g tissue, the “Tissue uptake, Heart” value (Biodistribution, tissues; 60 min) was 0.64 ± 0.40 % ID/g tissue and the “Tissue uptake, Jejunum empty” value (Biodistribution, tissues; 60 min) was 0.86 ± 0.46 % ID/g tissue. For the same substance, the “Tissue uptake, Jejunum full” value (Biodistribution, tissues; 60 min) was 0.99 ± 0.39 % ID/g tissue, the “Tissue uptake, Kidney” value (Biodistribution, tissues; 60 min) was 11.94 ± 10.30 % ID/g tissue and the “Tissue uptake, Liver” value (Biodistribution, tissues; 60 min) was 1.64 ± 1.49 % ID/g tissue. The “Tissue uptake, Lung” value (Biodistribution, tissues; 60 min) was 1.81 ± 1.32 % ID/g tissue, the “Tissue uptake, Muscle” value (Biodistribution, tissues; 60 min) was 0.50 ± 0.45 % ID/g tissue and the “Tissue uptake, Plasma” value (Biodistribution, tissues; 60 min) was 1.76 ± 1.06 % ID/g tissue. For the same substance, the “Tissue uptake, Spleen” value (Biodistribution, tissues; 60 min) was 0.88 ± 0.56 % ID/g tissue, the “Tissue uptake, Stomach empty” value (Biodistribution, tissues; 60 min) was 0.86 ± 0.72 % ID/g tissue and the “Tissue uptake, Stomach full” value (Biodistribution, tissues; 60 min) was 0.53 ± 0.29 % ID/g tissue. For the same substance, the “Tissue uptake, Urine” value (Biodistribution, tissues; 60 min) was 535.62 ± 303.04 % ID/g tissue, the “kidney radioactivity levels versus tumors” value (Biodistribution, tissues; 60 min) was “comparable to levels in tumors” and the “excretion / clearance” value (Biodistribution, tissues; mouse, in vivo) was “predominately and rapidly excreted via the renal route; also recorded: rapid renal clearance”. For the same substance, the “uptake in other organs, including the liver” value (Biodistribution, tissues; mouse, in vivo) was “negligible”.
